This note sets out measurements from US20240228645A1.

Experiment [1] concerns the target human BAFF-R expressed on cells (hBAFF-R-CHO isogenic CHO cells; BAFF-R+ cancer cells) (human) (UniProt Q96RJ3). Briefly: cell-based blocking assay; MFI of BAFF-biotin bound to CHO cells expressing human BAFF-R in the presence of the control antibody.
Experiment [2] concerns the target PSR. Briefly: PSR assay: antibody on Protein A coated beads, biotinylated PSR, SA-PE, flow cytometry; +PSR panel, other quadrants Q1 72.8, Q3 7.72E-3, Q4 0.29; without PSR Q2 0. In general terms: Flow cytometry measures light scatter and fluorescence of single cells or particles in a stream.
Experiment [3] addresses PSR. Kind of experiment: PSR assay: antibody on Protein A coated beads, biotinylated PSR, SA-PE, flow cytometry; +PSR panel, other quadrants Q1 98.8, Q3 0, Q4 0.048.
For experiment [4], the target named is hBAFF-R-hFc-His fusion protein (human) (UniProt Q96RJ3). Kind of experiment: yeast surface display flow cytometry; hBAFF-R-hFc-His (concentration not given); other quadrants Q1 0.35, Q3 13.0, Q4 28.5.
Experiment [5] has the same target. Briefly: yeast surface display flow cytometry, before challenge: 100 pM hBAFFR-Fc biotin for 1 hr at RT; other quadrants Q1 44.1, Q3 9.77E-3, Q4 14.6.
Experiment [6] shares this target. Briefly: yeast surface display flow cytometry, after challenge: 100 pM hBAFFR-Fc biotin, then 1 mM (so in the source); paragraph 270 says 1 uM) nonbiotinylated hBAFFR-Fc, t = 120 min.
The target is the same in experiment [7]. Briefly: yeast surface display flow cytometry; hBAFF-R-hFc-His (concentration not given).
For experiment [8] the target is unchanged. Kind of experiment: yeast surface display flow cytometry, after challenge: 100 pM hBAFFR-Fc biotin for 1 hr at RT, then 1 mM (so in the source); paragraph 270 says 1 uM) nonbiotinylated hBAFFR-Fc, t = 120 min; other quadrants Q1 64.5, Q3 0.050, Q4 21.0.
Experiment [9] has the same target. Kind of experiment: yeast surface display flow cytometry; hBAFF-R-hFc-His (concentration not given); other quadrants Q1 0.34, Q3 5.47, Q4 34.4.
Experiment [10] shares this target. Kind of experiment: yeast surface display flow cytometry; hBAFF-R-hFc-His (concentration not given); other quadrants Q1 0.17, Q3 10.5, Q4 22.3.

For the substance Human IgG1k (antibody), the Minimum (MFI) in [1] turned out to be 68000 MFI.

Ixekuzumab (antibody): in the experiment with PSR [2], the Q2, percent of beads positive for FITC and for PSR binding (PE), +PSR was determined as 27.1.

Turning to Trastuzumab (antibody), the Q2, percent of beads positive for FITC and for PSR binding (PE), +PSR with PSR [3] amounted to 1.18.

As for “ianalumab-based scFv benchmark control displayed on yeast”, the results for the Q2, percent of events positive for scFv expression and for antigen binding in [4], in experiment [9] and in [10] were 58.2, 59.5 and 67, respectively. The substance also had a Q2, percent of events positive for scFv expression and for antigen binding, before challenge in experiment [5] of 41.3. For the same substance, the Iana (drawn gate), percent of events, after challenge in experiment [6] came out at 0.13. For the same substance, in experiment [7], the Gated lane, percent of events in the drawn gate was 0.3. For the same substance, the Gated, percent of events in the drawn gate in experiment [7] stood at 0.72. The same substance showed a Q2, percent of events positive for scFv expression and for antigen binding, after challenge in experiment [8] of 14.4.
